Data published in the RNAGym collection of RNA variant scans (doi:10.7554/elife.90254).

B1: LINE1-full (parent)
chain: UACGUAGGUGGUUUUCCCCUGAUAGUGCUAAGGGGGCCUGGAAGUUUGGACUGGGCAGAGCUCAACACAGCGUGGCAAAGUGGCUGUGGCUAGACUGCCUCUCUGGAUUCCUCGUCACUCAGCAGGGCAUCUCUGAGAGAAAUGCC

Variants of: B1
Test: self-cleavage, relative activity (ratio to wild type); higher = more cleavage; in vitro, sequencing; the parent is a self-cleaving ribozyme

| Variant | self-cleavage |
| --- | --- |
| UACGUAGGUGGCUUUCCCCUGAUAGUGCUAAGGGGGCCUGGGAGUUUGGACUGGGCAGAGCUCAACACAGCGUGGCAAAGUGGCUGUGGCUAGACUGCCUCUCUGGAUUCCUCGUCACUCAGCAGGGCAUCUCUGAGAGAAAUGCC | 1.48 |
| UACGUAGGUGGCUUUCCCCUGAUAGUGCUAAGGGGGCCUGGAAGUUUGGGCUGGGCAGAGCUCAACACAGCGUGGCAAAGUGGCUGUGGCUAGACUGCCUCUCUGGAUUCCUCGUCACUCAGCAGGGCAUCUCUGAGAGAAAUGCC | 1.15 |
| UACGUAGGUGGCUUUCCCCUGAUAGUGCUAAGGGGGCCUGGAAGUUUGGUCUGGGCAGAGCUCAACACAGCGUGGCAAAGUGGCUGUGGCUAGACUGCCUCUCUGGAUUCCUCGUCACUCAGCAGGGCAUCUCUGAGAGAAAUGCC | 1.54 |
| UACGUAGGUGGCUUUCCCCUGAUAGUGCUAAGGGGGCCUGGAAGUUUGGACUGGGCGGAGCUCAACACAGCGUGGCAAAGUGGCUGUGGCUAGACUGCCUCUCUGGAUUCCUCGUCACUCAGCAGGGCAUCUCUGAGAGAAAUGCC | 1 |
| UACGUAGGUGGCUUUCCCCUGAUAGUGCUAAGGGGGCCUGGAAGUUUGGACUGGGCAGGGCUCAACACAGCGUGGCAAAGUGGCUGUGGCUAGACUGCCUCUCUGGAUUCCUCGUCACUCAGCAGGGCAUCUCUGAGAGAAAUGCC | 0.15 |
| UACGUAGGUGGCUUUCCCCUGAUAGUGCUAAGGGGGCCUGGAAGUUUGGACUGGGCAGAGCUCGACACAGCGUGGCAAAGUGGCUGUGGCUAGACUGCCUCUCUGGAUUCCUCGUCACUCAGCAGGGCAUCUCUGAGAGAAAUGCC | 0.28 |
| UACGUAGGUGGCUUUCCCCUGAUAGUGCUAAGGGGGCCUGGAAGUUUGGACUGGGCAGAGCUCAUCACAGCGUGGCAAAGUGGCUGUGGCUAGACUGCCUCUCUGGAUUCCUCGUCACUCAGCAGGGCAUCUCUGAGAGAAAUGCC | 0.21 |
| UACGUAGGUGGCUUUCCCCUGAUAGUGCUAAGGGGGCCUGGAAGUUUGGACUGGGCAGAGCUCAACACGGCGUGGCAAAGUGGCUGUGGCUAGACUGCCUCUCUGGAUUCCUCGUCACUCAGCAGGGCAUCUCUGAGAGAAAUGCC | 0.64 |
| UACGUAGGUGGCUUUCCCCUGAUAGUGCUAAGGGGGCCUGGAAGUUUGGACUGGGCAGAGCUCAACACUGCGUGGCAAAGUGGCUGUGGCUAGACUGCCUCUCUGGAUUCCUCGUCACUCAGCAGGGCAUCUCUGAGAGAAAUGCC | 0.09 |
| UACGUAGGUGGCUUUCCCCUGAUAGUGCUAAGGGGGCCUGGAAGUUUGGACUGGGCAGAGCUCAACACAGCGUGGCGAAGUGGCUGUGGCUAGACUGCCUCUCUGGAUUCCUCGUCACUCAGCAGGGCAUCUCUGAGAGAAAUGCC | 1.8 |
| UACGUAGGUGGCUUUCCCCUGAUAGUGCUAAGGGGGCCUGGAAGUUUGGACUGGGCAGAGCUCAACACAGCGUGGCUAAGUGGCUGUGGCUAGACUGCCUCUCUGGAUUCCUCGUCACUCAGCAGGGCAUCUCUGAGAGAAAUGCC | 1.26 |
| UACGUAGGUGGCUUUCCCCUGAUAGUGCUAAGGGGGCCUGGAAGUUUGGACUGGGCAGAGCUCAACACAGCGUGGCAUAGUGGCUGUGGCUAGACUGCCUCUCUGGAUUCCUCGUCACUCAGCAGGGCAUCUCUGAGAGAAAUGCC | 1.52 |
| UACGUAGGUGGCUUUCCCCUGAUAGUGCUAAGGGGGCCUGGAAGUUUGGACUGGGCAGAGCUCAACACAGCGUGGCAAGGUGGCUGUGGCUAGACUGCCUCUCUGGAUUCCUCGUCACUCAGCAGGGCAUCUCUGAGAGAAAUGCC | 1.1 |
| UACGUAGGUGGCUUUCCCCUGAUAGUGCUAAGGGGGCCUGGAAGUUUGGACUGGGCAGAGCUCAACACAGCGUGGCAAAGUGGCUGUGGCUAGGCUGCCUCUCUGGAUUCCUCGUCACUCAGCAGGGCAUCUCUGAGAGAAAUGCC | 0.37 |
| UACGUAGGUGGCUUUCCCCUGAUAGUGCUAAGGGGGCCUGGAAGUUUGGACUGGGCAGAGCUCAACACAGCGUGGCAAAGUGGCUGUGGCUAGACUGCCUCUCUGGGUUCCUCGUCACUCAGCAGGGCAUCUCUGAGAGAAAUGCC | 0.99 |
| UACGUAGGUGGCUUUCCCCUGAUAGUGCUAAGGGGGCCUGGAAGUUUGGACUGGGCAGAGCUCAACACAGCGUGGCAAAGUGGCUGUGGCUAGACUGCCUCUCUGGAUUCCUCGUCGCUCAGCAGGGCAUCUCUGAGAGAAAUGCC | 1.84 |
| UACGUAGGUGGCUUUCCCCUGAUAGUGCUAAGGGGGCCUGGAAGUUUGGACUGGGCAGAGCUCAACACAGCGUGGCAAAGUGGCUGUGGCUAGACUGCCUCUCUGGAUUCCUCGUCACUCAGCUGGGCAUCUCUGAGAGAAAUGCC | 1.29 |
| UACGUAGGUGGCUUUCCCCUGAUAGUGCUAAGGGGGCCUGGAAGUUUGGACUGGGCAGAGCUCAACACAGCGUGGCAAAGUGGCUGUGGCUAGACUGCCUCUCUGGAUUCCUCGUCACUCAGCAGGGCCUCUCUGAGAGAAAUGCC | 1.99 |
| UACGUAGGUGGCUUUCCCCUGAUAGUGCUAAGGGGGCCUGGAAGUUUGGACUGGGCAGAGCUCAACACAGCGUGGCAAAGUGGCUGUGGCUAGACUGCCUCUCUGGAUUCCUCGUCACUCAGCAGGGCUUCUCUGAGAGAAAUGCC | 1.53 |
| UACGUAGGUGGCUUUCCCCUGAUAGUGCUAAGGGGGCCUGGAAGUUUGGACUGGGCAGAGCUCAACACAGCGUGGCAAAGUGGCUGUGGCUAGACUGCCUCUCUGGAUUCCUCGUCACUCAGCAGGGCAUCUCUGUGAGAAAUGCC | 1.43 |

| Variant | self-cleavage |
| --- | --- |
| UACGUAGGUGGCUUUCCCCUGAUAGUGCUAAGGGGGCCUGGAAGUUUGGACUGGGCAGAGCUCAACACAGCGUGGCAAAGUGGCUGUGGCUAGACUGCCUCUCUGGAUUCCUCGUCACUCAGCAGGGCAUCUCUGAGUGAAAUGCC | 1.21 |
| UACGUAGGUGGCUUUCCCCUGAUAGUGCUAAGGGGGCCUGGAAGUUUGGACUGGGCAGAGCUCAACACAGCGUGGCAAAGUGGCUGUGGCUAGACUGCCUCUCUGGAUUCCUCGUCACUCAGCAGGGCAUCUCUGAGAGAAGUGCC | 1.13 |
| UACGUAGGUGGCUUUCUCCUGAUAGUGCUAAGGGGGCCUGGAAGUUUGGACUGGGCAGAGCUCAACACAGCGUGGCAAAGUGGCUGUGGCUAGACUGCCUCUCUGGAUUCCUCGUCACUCAGCAGGGCAUCUCUGAGAGAAAUGCC | 1.3 |
| UACGUAGGUGGCUUUCCCUUGAUAGUGCUAAGGGGGCCUGGAAGUUUGGACUGGGCAGAGCUCAACACAGCGUGGCAAAGUGGCUGUGGCUAGACUGCCUCUCUGGAUUCCUCGUCACUCAGCAGGGCAUCUCUGAGAGAAAUGCC | 1.08 |
| UACGUAGGUGGCUUUCCCCUGAUAGUGCUAAGGGGGCUUGGAAGUUUGGACUGGGCAGAGCUCAACACAGCGUGGCAAAGUGGCUGUGGCUAGACUGCCUCUCUGGAUUCCUCGUCACUCAGCAGGGCAUCUCUGAGAGAAAUGCC | 1.16 |
| UACGUAGGUGGCUUUCCCCUGAUAGUGCUAAGGGGGCCUGGAAGUUUGGACUGGGAAGAGCUCAACACAGCGUGGCAAAGUGGCUGUGGCUAGACUGCCUCUCUGGAUUCCUCGUCACUCAGCAGGGCAUCUCUGAGAGAAAUGCC | 0.01 |
| UACGUAGGUGGCUUUCCCCUGAUAGUGCUAAGGGGGCCUGGAAGUUUGGACUGGGCAGAGCUCAACACAGCGUGGCAAAGUGGCUGUGGCUAGACUGCGUCUCUGGAUUCCUCGUCACUCAGCAGGGCAUCUCUGAGAGAAAUGCC | 0.63 |
| UACGUAGGUGGCUUUCCCCUGAUAGUGCUAAGGGGGCCUGGAAGUUUGGACUGGGCAGAGCUCAACACAGCGUGGCAAAGUGGCUGUGGCUAGACUGCCUCUCUGGAUUCCUAGUCACUCAGCAGGGCAUCUCUGAGAGAAAUGCC | 0.64 |
| UACGUAGGUGGCUUUCCCCUGAUAGUGCUAAGGGGGCCUGGAAGUUUGGACUGGGCAGAGCUCAACACAGCGUGGCAAAGUGGCUGUGGCUAGACUGCCUCUCUGGAUUCCUUGUCACUCAGCAGGGCAUCUCUGAGAGAAAUGCC | 0.76 |
| UACGUAGGUGGCUUUCCCCUGAUAGUGCUAAGGGGGCCUGGAAGUUUGGACUGGGCAGAGCUCAACACAGCGUGGCAAAGUGGCUGUGGCUAGACUGCCUCUCUGGAUUCCUCGUUACUCAGCAGGGCAUCUCUGAGAGAAAUGCC | 0.77 |
| UACGUAGGUGGCUUUCCCCUGAUAGUGCUAAGGGGGCCUGGAAGUUUGGACUGGGCAGAGCUCAACACAGCGUGGCAAAGUGGCUGUGGCUAGACUGCCUCUCUGGAUUCCUCGUCACUAAGCAGGGCAUCUCUGAGAGAAAUGCC | 1.47 |
| UACGUAGGUGGCUUUCCCCUGAUAGUGCUAAGGGGGCCUGGAAGUUUGGACUGGGCAGAGCUCAACACAGCGUGGCAAAGUGGCUGUGGCUAGACUGCCUCUCUGGAUUCCUCGUCACUUAGCAGGGCAUCUCUGAGAGAAAUGCC | 1.43 |
| UACGUAGGUGGCUUUCCCCUGAUAGUGCUAAGGGGGCCUGGAAGUUUGGACUGGGCAGAGCUCAACACAGCGUGGCAAAGUGGCUGUGGCUAGACUGCCUCUCUGGAUUCCUCGUCACUCAGCAGGGCAUUUCUGAGAGAAAUGCC | 1.29 |
| UACGUAGGUGGCUUUCCCCUGAUAGUGCUAAGGGGGCCUGGAAGUUUGGACUGGGCAGAGCUCAACACAGCGUGGCAAAGUGGCUGUGGCUAGACUGCCUCUCUGGAUUCCUCGUCACUCAGCAGGGCAUCUCUGAGAGAAAUGCA | 1.45 |
| UACGUAGGUGGCUUUCCCCUGAUAGUGCUAAGGGGGCCUGGAAGUUUGGACUGGGCAGAGCUCAACACAGCGUGGCAAAGUGGCUGUGGCUAGACUGCCUCUCUGGAUUCCUCGUCACUCAGCAGGGCAUCUCUGAGAGAAAUGCU | 1.63 |
| UACGUAGGUGGCUUUCCCCUGAUAGUGCUAAGGCGGCCUGGAAGUUUGGACUGGGCAGAGCUCAACACAGCGUGGCAAAGUGGCUGUGGCUAGACUGCCUCUCUGGAUUCCUCGUCACUCAGCAGGGCAUCUCUGAGAGAAAUGCC | 1.34 |
| UACGUAGGUGGCUUUCCCCUGAUAGUGCUAAGGGUGCCUGGAAGUUUGGACUGGGCAGAGCUCAACACAGCGUGGCAAAGUGGCUGUGGCUAGACUGCCUCUCUGGAUUCCUCGUCACUCAGCAGGGCAUCUCUGAGAGAAAUGCC | 1.53 |
| UACGUAGGUGGCUUUCCCCUGAUAGUGCUAAGGGGCCCUGGAAGUUUGGACUGGGCAGAGCUCAACACAGCGUGGCAAAGUGGCUGUGGCUAGACUGCCUCUCUGGAUUCCUCGUCACUCAGCAGGGCAUCUCUGAGAGAAAUGCC | 0.95 |
| UACGUAGGUGGCUUUCCCCUGAUAGUGCUAAGGGGGCCUGUAAGUUUGGACUGGGCAGAGCUCAACACAGCGUGGCAAAGUGGCUGUGGCUAGACUGCCUCUCUGGAUUCCUCGUCACUCAGCAGGGCAUCUCUGAGAGAAAUGCC | 1.25 |
